According to patent publication US20220119490A1 (Genentech, published 2022):

Legend:
PTPRG expressed on cells = target: T1, PTPRG expressed on cells (human, UniProt P23470 20-1445); test: cell surface interaction assay: query ECD tetramerised with fluorescent streptavidin on transfected cells, immunofluorescence
T1 construct: whole, on cells
From the text: (§1) FIG. 3H is a schematic showing the design of the cell surface interaction assay.
(§2) Experiments shown are representative of two independent assays. […] Scale bar=50 μm.

[1] = target: T2, PTPRZ1 expressed on cells (human, UniProt P23471 25-2315); test: as above
T2 construct: whole, on cells
T2 sequence (P23471 25-2315): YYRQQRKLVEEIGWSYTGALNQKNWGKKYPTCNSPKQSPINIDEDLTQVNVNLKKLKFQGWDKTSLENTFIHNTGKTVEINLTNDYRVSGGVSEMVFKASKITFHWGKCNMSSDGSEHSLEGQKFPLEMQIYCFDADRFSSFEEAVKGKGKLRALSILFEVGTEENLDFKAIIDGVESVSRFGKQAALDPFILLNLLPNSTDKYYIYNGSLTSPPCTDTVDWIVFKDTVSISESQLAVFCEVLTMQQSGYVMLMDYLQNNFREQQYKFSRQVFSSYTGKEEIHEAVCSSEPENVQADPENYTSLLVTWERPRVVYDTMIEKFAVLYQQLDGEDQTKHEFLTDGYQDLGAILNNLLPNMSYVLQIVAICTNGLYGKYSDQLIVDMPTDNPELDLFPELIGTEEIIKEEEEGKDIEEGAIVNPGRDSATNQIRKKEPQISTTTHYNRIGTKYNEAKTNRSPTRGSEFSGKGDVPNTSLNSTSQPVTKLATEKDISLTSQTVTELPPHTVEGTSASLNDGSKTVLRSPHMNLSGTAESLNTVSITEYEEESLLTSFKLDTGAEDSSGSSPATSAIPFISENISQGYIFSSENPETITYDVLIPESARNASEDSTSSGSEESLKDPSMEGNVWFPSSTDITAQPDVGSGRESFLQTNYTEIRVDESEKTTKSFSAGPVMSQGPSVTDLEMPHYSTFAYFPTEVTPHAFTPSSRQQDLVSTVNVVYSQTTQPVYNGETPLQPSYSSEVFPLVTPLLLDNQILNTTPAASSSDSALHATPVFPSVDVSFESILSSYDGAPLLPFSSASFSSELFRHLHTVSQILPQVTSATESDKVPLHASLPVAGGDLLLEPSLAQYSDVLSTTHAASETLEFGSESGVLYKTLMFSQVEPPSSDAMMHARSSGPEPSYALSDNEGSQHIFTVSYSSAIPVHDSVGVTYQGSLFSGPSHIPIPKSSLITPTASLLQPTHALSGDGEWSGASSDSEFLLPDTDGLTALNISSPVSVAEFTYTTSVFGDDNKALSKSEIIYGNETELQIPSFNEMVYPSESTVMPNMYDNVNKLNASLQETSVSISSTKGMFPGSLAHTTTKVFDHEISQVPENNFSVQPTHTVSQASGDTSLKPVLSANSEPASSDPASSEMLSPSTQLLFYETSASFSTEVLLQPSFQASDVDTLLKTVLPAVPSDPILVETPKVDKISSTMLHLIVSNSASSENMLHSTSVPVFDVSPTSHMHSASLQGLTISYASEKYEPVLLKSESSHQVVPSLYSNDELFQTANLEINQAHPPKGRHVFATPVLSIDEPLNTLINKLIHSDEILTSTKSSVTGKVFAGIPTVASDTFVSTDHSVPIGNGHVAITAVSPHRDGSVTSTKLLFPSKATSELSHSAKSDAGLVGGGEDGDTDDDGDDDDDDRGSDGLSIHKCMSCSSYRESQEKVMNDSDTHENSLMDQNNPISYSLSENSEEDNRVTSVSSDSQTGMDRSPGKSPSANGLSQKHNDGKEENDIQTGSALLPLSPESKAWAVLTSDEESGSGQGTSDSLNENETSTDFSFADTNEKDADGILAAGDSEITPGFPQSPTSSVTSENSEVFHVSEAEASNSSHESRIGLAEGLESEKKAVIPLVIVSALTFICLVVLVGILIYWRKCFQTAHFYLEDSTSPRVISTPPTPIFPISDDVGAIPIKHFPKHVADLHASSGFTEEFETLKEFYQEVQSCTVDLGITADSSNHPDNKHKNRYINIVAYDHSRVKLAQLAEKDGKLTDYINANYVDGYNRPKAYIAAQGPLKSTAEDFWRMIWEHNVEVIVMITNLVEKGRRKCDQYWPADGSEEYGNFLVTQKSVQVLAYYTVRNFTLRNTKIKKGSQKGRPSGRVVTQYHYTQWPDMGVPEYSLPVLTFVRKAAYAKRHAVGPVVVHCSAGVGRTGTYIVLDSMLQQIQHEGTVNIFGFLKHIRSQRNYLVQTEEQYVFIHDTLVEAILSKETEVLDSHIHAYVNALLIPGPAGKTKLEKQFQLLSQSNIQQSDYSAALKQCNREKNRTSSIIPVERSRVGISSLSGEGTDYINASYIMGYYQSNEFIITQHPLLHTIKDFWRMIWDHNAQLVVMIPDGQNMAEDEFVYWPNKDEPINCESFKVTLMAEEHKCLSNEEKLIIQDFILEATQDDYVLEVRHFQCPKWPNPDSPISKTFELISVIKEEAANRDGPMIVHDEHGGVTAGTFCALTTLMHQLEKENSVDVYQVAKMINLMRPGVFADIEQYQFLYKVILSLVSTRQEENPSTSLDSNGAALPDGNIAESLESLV
From the text: as §1, §2

PTPRM expressed on cells = target: T3, PTPRM expressed on cells (human, UniProt P28827 21-1452); test: as above
T3 construct: whole, on cells
T3 sequence (P28827 21-1452): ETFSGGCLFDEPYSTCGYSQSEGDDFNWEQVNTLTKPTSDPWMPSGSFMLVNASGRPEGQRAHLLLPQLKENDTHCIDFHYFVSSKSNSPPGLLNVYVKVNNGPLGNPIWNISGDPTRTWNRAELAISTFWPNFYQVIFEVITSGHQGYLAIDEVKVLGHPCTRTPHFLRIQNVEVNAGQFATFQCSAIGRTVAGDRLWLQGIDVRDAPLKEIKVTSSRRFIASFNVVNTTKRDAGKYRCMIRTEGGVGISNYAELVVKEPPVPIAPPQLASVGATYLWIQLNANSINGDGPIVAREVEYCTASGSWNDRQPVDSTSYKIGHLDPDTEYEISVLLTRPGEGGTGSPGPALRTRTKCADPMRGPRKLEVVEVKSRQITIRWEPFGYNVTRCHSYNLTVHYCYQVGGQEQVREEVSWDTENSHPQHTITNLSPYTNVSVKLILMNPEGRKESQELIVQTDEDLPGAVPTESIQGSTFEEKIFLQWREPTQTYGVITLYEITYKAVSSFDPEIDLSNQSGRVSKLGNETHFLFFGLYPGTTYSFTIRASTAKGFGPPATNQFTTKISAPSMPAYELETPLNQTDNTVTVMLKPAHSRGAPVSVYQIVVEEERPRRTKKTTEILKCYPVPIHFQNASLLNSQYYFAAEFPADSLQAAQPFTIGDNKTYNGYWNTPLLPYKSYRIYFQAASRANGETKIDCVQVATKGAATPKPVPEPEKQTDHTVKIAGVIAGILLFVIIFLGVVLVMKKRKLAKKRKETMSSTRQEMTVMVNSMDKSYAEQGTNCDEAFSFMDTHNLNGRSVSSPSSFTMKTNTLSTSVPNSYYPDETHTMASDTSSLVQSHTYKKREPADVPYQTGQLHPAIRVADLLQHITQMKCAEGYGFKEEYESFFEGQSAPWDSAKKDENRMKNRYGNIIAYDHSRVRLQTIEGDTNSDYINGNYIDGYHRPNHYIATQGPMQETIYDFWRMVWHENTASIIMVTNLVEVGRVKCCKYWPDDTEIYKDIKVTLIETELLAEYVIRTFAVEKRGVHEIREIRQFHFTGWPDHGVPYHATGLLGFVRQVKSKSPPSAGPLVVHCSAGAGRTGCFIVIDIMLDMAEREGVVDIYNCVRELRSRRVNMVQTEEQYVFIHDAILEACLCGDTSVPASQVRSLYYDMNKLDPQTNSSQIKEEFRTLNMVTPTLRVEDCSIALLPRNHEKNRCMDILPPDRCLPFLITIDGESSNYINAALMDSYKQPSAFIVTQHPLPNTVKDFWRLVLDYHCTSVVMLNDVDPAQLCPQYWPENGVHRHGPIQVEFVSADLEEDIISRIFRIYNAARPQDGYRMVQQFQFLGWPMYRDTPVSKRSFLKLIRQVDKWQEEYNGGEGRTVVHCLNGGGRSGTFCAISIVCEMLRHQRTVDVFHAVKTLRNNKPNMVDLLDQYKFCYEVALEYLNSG
From the text: as §1, §2

PTPRT expressed on cells = target: T4, PTPRT expressed on cells (human, UniProt O14522 26-1441); test: as above
T4 construct: whole, on cells
T4 sequence (looked up): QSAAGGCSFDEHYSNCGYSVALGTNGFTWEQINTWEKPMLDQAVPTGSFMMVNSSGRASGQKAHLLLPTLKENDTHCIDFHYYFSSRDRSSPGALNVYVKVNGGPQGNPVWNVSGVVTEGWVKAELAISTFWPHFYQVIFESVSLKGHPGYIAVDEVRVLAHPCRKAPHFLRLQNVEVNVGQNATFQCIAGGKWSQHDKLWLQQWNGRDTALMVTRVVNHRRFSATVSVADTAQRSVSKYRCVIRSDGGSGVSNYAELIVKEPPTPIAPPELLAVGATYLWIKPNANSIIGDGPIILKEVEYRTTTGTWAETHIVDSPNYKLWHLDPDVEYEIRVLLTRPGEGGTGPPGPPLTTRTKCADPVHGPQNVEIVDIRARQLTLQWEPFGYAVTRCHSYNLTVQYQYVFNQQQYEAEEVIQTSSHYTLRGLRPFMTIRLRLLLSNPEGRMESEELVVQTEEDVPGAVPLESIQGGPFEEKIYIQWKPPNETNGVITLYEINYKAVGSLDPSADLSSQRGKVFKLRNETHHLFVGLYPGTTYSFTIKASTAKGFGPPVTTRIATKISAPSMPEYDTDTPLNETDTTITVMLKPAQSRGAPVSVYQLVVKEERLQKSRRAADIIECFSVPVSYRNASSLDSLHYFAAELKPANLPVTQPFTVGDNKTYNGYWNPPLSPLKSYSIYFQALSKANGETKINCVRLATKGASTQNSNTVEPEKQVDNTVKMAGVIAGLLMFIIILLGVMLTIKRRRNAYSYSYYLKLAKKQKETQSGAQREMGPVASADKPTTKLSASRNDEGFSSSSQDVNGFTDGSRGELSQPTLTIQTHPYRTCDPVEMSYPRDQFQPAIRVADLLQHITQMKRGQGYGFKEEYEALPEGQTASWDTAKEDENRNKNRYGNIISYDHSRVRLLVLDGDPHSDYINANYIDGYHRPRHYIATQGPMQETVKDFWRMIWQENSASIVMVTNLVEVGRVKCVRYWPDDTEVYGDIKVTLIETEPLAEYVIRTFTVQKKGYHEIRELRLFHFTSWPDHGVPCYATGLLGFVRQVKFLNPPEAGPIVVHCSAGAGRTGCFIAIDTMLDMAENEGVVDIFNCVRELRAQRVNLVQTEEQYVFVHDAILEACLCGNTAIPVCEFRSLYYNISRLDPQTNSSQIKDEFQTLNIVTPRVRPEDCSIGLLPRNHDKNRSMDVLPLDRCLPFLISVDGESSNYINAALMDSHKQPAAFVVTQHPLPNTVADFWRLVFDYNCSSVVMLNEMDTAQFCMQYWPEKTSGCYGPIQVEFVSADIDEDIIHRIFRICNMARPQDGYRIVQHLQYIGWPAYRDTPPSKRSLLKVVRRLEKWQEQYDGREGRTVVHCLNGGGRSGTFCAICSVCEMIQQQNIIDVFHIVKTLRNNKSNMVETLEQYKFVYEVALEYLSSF
From the text: as §1, §2

[2] = target: T5, CHL1 extracellular domain (human, UniProt O00533 25-1082); test: SPR, CHL1 immobilized, CNTN1 ECD-Fc injected at 250 nM
T5 construct: extracellular domain; Soluble query (streptavidin tetramer) in cell assays; recombinant protein (R&D) in SPR; also called neural cell adhesion molecule L1-like protein; close homolog of L1
T5 sequence (looked up): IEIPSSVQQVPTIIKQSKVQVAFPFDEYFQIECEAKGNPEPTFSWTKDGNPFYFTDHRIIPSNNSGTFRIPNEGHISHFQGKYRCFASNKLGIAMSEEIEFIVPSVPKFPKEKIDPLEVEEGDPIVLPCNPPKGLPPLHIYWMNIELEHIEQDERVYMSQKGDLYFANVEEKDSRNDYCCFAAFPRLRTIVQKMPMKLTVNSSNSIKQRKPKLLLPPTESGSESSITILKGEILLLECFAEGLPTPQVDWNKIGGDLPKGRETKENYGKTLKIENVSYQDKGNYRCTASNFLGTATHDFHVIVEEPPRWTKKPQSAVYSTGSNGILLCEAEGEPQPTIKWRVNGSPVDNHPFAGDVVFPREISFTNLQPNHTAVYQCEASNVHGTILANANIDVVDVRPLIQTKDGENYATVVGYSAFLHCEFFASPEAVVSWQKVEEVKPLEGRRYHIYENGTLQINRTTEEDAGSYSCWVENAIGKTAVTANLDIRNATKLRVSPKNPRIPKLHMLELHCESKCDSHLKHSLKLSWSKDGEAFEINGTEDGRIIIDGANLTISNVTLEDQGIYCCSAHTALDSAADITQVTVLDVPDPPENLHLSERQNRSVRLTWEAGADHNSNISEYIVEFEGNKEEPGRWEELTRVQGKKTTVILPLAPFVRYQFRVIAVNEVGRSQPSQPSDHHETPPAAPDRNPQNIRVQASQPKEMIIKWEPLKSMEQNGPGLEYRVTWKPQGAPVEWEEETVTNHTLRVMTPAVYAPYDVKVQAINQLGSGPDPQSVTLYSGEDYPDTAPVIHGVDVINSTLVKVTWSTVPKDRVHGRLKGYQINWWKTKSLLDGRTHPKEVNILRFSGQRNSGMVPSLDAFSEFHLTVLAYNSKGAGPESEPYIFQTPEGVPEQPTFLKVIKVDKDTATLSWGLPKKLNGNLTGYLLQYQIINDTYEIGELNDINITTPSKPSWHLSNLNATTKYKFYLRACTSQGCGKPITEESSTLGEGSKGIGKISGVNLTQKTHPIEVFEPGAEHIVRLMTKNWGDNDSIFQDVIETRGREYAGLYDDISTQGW

T1 sequence (P23470 20-1445): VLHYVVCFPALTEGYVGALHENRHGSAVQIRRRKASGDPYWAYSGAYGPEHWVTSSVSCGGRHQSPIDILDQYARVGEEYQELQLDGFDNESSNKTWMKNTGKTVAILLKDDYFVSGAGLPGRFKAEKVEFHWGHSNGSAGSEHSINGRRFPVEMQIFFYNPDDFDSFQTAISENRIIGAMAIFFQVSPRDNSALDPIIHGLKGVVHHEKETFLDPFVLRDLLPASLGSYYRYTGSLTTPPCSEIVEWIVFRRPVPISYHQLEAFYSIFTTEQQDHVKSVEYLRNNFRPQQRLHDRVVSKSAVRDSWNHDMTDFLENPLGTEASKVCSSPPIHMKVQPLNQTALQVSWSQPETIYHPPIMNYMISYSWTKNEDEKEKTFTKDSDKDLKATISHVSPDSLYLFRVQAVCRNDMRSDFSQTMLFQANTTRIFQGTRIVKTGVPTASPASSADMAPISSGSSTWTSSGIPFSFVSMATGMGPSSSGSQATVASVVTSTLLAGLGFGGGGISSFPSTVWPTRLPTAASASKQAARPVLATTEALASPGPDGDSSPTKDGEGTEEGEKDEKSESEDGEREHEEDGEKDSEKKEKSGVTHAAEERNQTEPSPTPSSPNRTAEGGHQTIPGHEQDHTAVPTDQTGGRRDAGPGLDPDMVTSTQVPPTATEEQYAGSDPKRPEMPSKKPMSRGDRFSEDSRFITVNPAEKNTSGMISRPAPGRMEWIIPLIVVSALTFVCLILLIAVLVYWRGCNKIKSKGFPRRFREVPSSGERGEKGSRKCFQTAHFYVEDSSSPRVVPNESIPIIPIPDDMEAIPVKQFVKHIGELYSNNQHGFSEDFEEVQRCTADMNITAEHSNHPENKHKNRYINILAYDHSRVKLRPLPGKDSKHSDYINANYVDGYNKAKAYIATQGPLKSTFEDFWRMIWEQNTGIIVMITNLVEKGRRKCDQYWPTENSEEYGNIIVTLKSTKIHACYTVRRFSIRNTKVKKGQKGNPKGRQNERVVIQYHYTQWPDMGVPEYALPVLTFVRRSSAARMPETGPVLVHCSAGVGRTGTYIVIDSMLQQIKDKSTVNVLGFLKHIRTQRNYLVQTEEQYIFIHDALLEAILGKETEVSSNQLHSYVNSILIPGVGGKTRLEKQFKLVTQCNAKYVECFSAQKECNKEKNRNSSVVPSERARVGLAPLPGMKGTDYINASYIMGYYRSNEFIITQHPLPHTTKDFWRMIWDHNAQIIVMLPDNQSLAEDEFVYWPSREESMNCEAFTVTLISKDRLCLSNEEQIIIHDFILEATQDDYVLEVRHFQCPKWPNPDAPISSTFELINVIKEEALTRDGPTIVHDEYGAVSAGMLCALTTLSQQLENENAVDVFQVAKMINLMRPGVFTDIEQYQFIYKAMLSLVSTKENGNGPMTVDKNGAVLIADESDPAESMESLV

Binder	binding result (PTPRG expressed on cells)	binding result [1]	binding result (PTPRM expressed on cells)	binding result (PTPRT expressed on cells)	binding result [2]
LRFN5 extracellular domain (receptor, human, UniProt Q96NI6 18-529, looked up, extracellular domain; Streptavidin tetramer in cell assay; ECD-Fc prey in the variant screen; also called LFRN5) QICPKRCVCQILSPNLATLCAKKGLLFVPPNIDRRTVELRLADNFVTNIKRKDFANMTSLVDLTLSRNTISFITPHAFADLRNLRALHLNSNRLTKITNDMFSGLSNLHHLILNNNQLTLISSTAFDDVFALEELDLSYNNLETIPWDAVEKMVSLHTLSLDHNMIDNIPKGTFSHLHKMTRLDVTSNKLQKLPPDPLFQRAQVLATSGIISPSTFALSFGGNPLHCNCELLWLRRLSREDDLETCASPPLLTGRYFWSIPEEEFLCEPPLITRHTHEMRVLEGQRATLRCKARGDPEPAIHWISPEGKLISNATRSLVYDNGTLDILITTVKDTGAFTCIASNPAGEATQIVDLHIIKLPHLLNSTNHIHEPDPGSSDISTSTKSGSNTSSSNGDTKLSQDKIVVAEATSSTALLKFNFQRNIPGIRMFQIQYNGTYDDTLVYRMIPPTSKTFLVNNLAAGTMYDLCVLAIYDDGITSLTATRVVGCIQFTTEQDYVRCHFMQSQFLGGTM	no binding	no binding	no binding	no binding	
CNTN1 extracellular domain (receptor, human, UniProt Q12860 21-993, looked up, extracellular domain; Streptavidin tetramer in cell assays; ECD-Fc in SPR; also called contactin 1) EFTWYRRYGHGVSEEDKGFGPIFEEQPINTIYPEESLEGKVSLNCRARASPFPVYKWRMNNGDVDLTSDRYSMVGGNLVINNPDKQKDAGIYYCLASNNYGMVRSTEATLSFGYLDPFPPEERPEVRVKEGKGMVLLCDPPYHFPDDLSYRWLLNEFPVFITMDKRRFVSQTNGNLYIANVEASDKGNYSCFVSSPSITKSVFSKFIPLIPIPERTTKPYPADIVVQFKDVYALMGQNVTLECFALGNPVPDIRWRKVLEPMPSTAEISTSGAVLKIFNIQLEDEGIYECEAENIRGKDKHQARIYVQAFPEWVEHINDTEVDIGSDLYWPCVATGKPIPTIRWLKNGYAYHKGELRLYDVTFENAGMYQCIAENTYGAIYANAELKILALAPTFEMNPMKKKILAAKGGRVIIECKPKAAPKPKFSWSKGTEWLVNSSRILIWEDGSLEINNITRNDGGIYTCFAENNRGKANSTGTLVITDPTRIILAPINADITVGENATMQCAASFDPALDLTFVWSFNGYVIDFNKENIHYQRNFMLDSNGELLIRNAQLKHAGRYTCTAQTIVDNSSASADLVVRGPPGPPGGLRIEDIRATSVALTWSRGSDNHSPISKYTIQTKTILSDDWKDAKTDPPIIEGNMEAARAVDLIPWMEYEFRVVATNTLGRGEPSIPSNRIKTDGAAPNVAPSDVGGGGGRNRELTITWAPLSREYHYGNNFGYIVAFKPFDGEEWKKVTVTNPDTGRYVHKDETMSPSTAFQVKVKAFNNKGDGPYSLVAVINSAQDAPSEAPTEVGVKVLSSSEISVHWEHVLEKIVESYQIRYWAAHDKEEAANRVQVTSQEYSARLENLLPDTQYFIEVGACNSAGCGPPSDMIEAFTKKAPPSQPPRIISSVRSGSRYIITWDHVVALSNESTVTGYKVLYRPDGQHDGKLYSTHKHSIEVPIPRDGEYVVEVRAHSDGGDGVVSQVKIS					binds
